Experimental data as given in publication PMC7467640.

How the values were obtained:
[1] = molecular target: His224 (UniProt position 224, …); assay: potentiometry; conditions: 298 K; 0.1 M (NaClO4); none (4 mM HClO4, titrated with carbonate-free NaOH); metal-free peptide, 0.5 mM, argon atmosphere
[2] = molecular target: His239 (UniProt position 239, …); assay: potentiometry; conditions: 298 K; 0.1 M (NaClO4); none (4 mM HClO4, titrated with carbonate-free NaOH); metal-free peptide, 0.5 mM, argon atmosphere

GHFTVNPEIQPGAQRLHE
pKa [1]: 6.76 | pKa [2]: 6.16
